Results from paper PMC8794802.

Key:
Test in all cases: EMSA
Pus7 D256A/E71A = target: T1, Pus7 D256A/E71A (Saccharomyces cerevisiae, UniProt Q08647 1-676, E71A;D256A)
T1 sequence: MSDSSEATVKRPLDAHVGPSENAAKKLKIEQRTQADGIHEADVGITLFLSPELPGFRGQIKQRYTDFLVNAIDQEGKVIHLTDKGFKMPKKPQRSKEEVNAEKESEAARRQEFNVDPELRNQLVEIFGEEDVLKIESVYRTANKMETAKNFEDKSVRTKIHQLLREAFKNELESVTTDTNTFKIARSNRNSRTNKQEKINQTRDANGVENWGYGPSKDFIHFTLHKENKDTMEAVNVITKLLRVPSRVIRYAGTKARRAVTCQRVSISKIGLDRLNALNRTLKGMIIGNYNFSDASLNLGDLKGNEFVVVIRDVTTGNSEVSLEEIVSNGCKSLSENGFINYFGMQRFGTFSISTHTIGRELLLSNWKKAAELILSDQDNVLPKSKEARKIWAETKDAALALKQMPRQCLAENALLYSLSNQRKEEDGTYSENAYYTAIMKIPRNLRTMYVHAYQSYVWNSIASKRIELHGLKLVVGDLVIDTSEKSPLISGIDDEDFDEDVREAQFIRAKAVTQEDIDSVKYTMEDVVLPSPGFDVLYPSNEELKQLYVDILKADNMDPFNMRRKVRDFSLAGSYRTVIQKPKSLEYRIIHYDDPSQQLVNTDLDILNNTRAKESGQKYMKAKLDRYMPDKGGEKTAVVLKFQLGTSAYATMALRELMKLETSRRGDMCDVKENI

Pus7 D256A/N305A = target: T2, Pus7 D256A/N305A (Saccharomyces cerevisiae, UniProt Q08647 1-676, D256A;N305A)
T2 sequence: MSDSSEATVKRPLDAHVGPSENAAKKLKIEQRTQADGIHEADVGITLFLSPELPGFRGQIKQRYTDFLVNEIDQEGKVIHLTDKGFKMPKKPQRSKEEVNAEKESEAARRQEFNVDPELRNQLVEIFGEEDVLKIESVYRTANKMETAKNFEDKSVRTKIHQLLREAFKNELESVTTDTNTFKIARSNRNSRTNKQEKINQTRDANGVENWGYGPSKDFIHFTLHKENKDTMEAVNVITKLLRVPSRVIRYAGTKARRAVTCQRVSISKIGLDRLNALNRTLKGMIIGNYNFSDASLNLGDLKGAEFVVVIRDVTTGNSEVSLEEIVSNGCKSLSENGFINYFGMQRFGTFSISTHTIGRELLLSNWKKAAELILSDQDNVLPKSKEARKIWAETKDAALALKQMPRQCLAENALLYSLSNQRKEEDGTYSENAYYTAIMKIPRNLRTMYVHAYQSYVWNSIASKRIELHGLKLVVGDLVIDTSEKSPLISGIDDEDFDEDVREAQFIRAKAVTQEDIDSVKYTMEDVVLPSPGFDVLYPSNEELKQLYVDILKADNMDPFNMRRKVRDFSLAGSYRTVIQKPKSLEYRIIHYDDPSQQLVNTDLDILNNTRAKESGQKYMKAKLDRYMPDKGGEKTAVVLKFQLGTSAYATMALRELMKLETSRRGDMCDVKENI

Pus7 D256A/H161A = target: T3, Pus7 D256A/H161A (Saccharomyces cerevisiae, UniProt Q08647 1-676, H161A;D256A)
T3 sequence: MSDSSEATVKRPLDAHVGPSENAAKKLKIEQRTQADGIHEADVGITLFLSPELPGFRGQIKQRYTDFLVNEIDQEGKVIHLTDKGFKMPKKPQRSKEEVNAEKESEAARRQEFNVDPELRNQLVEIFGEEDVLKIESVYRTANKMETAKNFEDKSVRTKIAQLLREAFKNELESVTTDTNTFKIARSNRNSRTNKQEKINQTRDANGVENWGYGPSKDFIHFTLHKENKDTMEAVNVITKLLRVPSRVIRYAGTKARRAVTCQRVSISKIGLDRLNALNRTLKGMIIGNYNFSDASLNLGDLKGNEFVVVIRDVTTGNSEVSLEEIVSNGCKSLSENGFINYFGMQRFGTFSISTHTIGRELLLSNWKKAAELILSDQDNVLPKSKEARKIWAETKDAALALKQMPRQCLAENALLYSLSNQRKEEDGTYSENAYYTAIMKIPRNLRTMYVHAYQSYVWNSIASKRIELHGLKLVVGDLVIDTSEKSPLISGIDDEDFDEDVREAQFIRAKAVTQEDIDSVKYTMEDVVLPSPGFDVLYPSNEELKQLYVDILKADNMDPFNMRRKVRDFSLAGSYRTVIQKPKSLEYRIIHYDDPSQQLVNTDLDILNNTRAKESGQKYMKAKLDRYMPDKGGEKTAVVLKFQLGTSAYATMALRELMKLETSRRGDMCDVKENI

B1: CDC8 (cdc8-FL, 61 nt) (ssRNA)
RNA: GUCAAUCACGAUUGUAGACGUUACUAAUAAGGGCAUUCAGGAAGUUGAAGCGCUUAUUUGG
Kd (Pus7 D256A/E71A): 210 ± 50 nM | Kd (Pus7 D256A/N305A): 230 ± 60 nM | Kd (Pus7 D256A/H161A): 170 ± 40 nM
